Assay [1] concerns the target T1, human calcitonin receptor (human, UniProt P30988 25-474).
T1 construct: whole, on cells; Used as membranes prepared from the transfected cells; also called hCTR; hCT
T1 sequence (looked up): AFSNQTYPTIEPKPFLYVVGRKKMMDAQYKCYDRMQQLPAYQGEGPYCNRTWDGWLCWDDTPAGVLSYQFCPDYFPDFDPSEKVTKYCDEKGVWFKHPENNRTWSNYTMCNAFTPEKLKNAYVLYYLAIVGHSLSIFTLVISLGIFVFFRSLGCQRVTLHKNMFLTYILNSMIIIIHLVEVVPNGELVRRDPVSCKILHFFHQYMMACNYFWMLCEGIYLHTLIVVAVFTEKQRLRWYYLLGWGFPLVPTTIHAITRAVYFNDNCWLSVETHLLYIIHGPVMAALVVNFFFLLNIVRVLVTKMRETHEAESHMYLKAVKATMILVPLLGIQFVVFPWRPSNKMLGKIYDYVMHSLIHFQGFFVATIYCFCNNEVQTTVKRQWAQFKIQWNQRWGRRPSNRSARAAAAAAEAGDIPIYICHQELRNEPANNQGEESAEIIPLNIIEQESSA
Nature of the assay: ratio of binding IC50 at human calcitonin receptor to IC50 at human amylin receptor (reference). An outline of the steps: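 IC₅₀ values were derived by one-site competition analysis of SPA counts. Cell membranes (35 ng/μL) with SPA beads were incubated with test compounds for 120 min at 25° C in Hepes buffer, pH 7.4, containing CaCl2, MgCl₂, OA and Tween20.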

The target of assay [2] is T2, rat calcitonin receptor (rat, UniProt P32214 25-516).
T2 construct: whole, on cells; Used as membranes prepared from the transfected cells; also called rCTR; rCT
T2 sequence (looked up): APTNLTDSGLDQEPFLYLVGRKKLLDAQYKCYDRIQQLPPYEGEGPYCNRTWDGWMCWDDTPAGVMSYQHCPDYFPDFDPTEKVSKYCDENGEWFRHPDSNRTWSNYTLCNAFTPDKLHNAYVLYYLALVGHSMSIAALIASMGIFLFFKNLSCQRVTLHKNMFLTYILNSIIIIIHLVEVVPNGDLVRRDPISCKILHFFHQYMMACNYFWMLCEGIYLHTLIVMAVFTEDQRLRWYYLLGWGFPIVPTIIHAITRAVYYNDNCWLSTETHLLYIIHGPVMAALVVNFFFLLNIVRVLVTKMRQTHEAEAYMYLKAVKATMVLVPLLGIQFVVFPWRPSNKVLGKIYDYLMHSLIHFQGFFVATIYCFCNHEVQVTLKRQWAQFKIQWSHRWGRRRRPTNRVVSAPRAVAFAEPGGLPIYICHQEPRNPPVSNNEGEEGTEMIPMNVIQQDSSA
The assay can be described thus: SPA competition with 125I-calcitonin, membranes with rat calcitonin receptor (Assay VIII).

Assay [3] has as its target T3, rat amylin receptor (rat calcitonin receptor with rat RAMP 3) (rat, UniProt P32214 25-516; Q9JJ73 23-147).
T3 construct: whole, on cells; Used as membranes prepared from the transfected cells; also called rAmylin-R; rAmylin
T3 sequence (looked up) 1: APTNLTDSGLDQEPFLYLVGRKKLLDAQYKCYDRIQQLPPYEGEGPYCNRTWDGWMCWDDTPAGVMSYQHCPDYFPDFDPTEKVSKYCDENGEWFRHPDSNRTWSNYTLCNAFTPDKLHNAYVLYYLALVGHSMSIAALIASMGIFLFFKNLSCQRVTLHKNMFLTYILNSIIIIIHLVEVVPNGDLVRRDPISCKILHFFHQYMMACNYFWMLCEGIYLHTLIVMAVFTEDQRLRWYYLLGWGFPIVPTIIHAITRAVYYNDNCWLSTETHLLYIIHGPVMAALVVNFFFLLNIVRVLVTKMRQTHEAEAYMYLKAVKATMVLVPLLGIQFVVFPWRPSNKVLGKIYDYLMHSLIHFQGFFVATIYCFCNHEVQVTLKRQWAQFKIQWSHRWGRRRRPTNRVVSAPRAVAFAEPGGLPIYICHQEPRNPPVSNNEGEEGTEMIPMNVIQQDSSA
T3 sequence (looked up) 2: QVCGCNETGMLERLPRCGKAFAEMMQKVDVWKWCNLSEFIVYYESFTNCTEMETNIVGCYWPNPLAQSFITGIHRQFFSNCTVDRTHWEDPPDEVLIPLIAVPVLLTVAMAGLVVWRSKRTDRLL
The assay can be described thus: SPA competition with 125I-rat amylin, membranes with rat calcitonin receptor + rat RAMP3 (Assay VI).

Assay [4] has as its target T2, rat calcitonin receptor. Nature of the assay: ratio of binding IC50 at rat calcitonin receptor to IC50 at rat amylin receptor (reference).

Here are results for four molecules from patent US20140087995A1 (published 2014).

Numbered stars: 1 amine (or outer) side, 2 acyl side, 3 side chain; on linkers, the order of the positions; unused ones are H or OH. Bridge positions count the residues as written; N and C are the ends. Side chains are listed from the residue outwards. Ends that are not written are not given here. * marks the point of attachment. C20 diacid = O=C(O)CCCCCCCCCCCCCCCCCCC(=O)*; γGlu = O=C(O)[C@H](CCC(=O)[*:2])N[*:1]; AEEA = NCCOCCOCC(=O)O

B1: N^ε1-[2-[2-[2-[[2-[2-[2-[[(4S)-4-carboxy-4-(19-carboxynonadecanoylamino)butanoyl]amino]ethoxy]ethoxy]acetyl]amino]ethoxy]ethoxy]acetyl]-[Arg17,Pro21,Pro27,Pro31 … (peptide)
peptide: K([AEEA-AEEA-γGlu-C20 diacid])CNTATCATQRLANFLRHSSPNFGAIPSSTPVGSNTY-NH2
modifications: disulfide 2-7; N-terminus assumed
SMILES: CC[C@H](C)[C@H](NC(=O)[C@H](C)NC(=O)CNC(=O)[C@H](Cc1ccccc1)NC(=O)[C@H](CC(N)=O)NC(=O)[C@@H]1CCCN1C(=O)[C@H](CO)NC(=O)[C@H](CO)NC(=O)[C@H](Cc1c[nH]cn1)NC(=O)[C@H](CCCNC(=N)N)NC(=O)[C@H](CC(C)C)NC(=O)[C@H](Cc1ccccc1)NC(=O)[C@H](CC(N)=O)NC(=O)[C@H](C)NC(=O)[C@H](CC(C)C)NC(=O)[C@H](CCCNC(=N)N)NC(=O)[C@H](CCC(N)=O)NC(=O)[C@@H](NC(=O)[C@H](C)NC(=O)[C@@H]1CSSC[C@H](NC(=O)[C@@H](N)CCCCNC(=O)COCCOCCNC(=O)COCCOCCNC(=O)CC[C@H](NC(=O)CCCCCCCCCCCCCCCCCCC(=O)O)C(=O)O)C(=O)N[C@@H](CC(N)=O)C(=O)N[C@@H]([C@@H](C)O)C(=O)N[C@@H](C)C(=O)N[C@@H]([C@@H](C)O)C(=O)N1)[C@@H](C)O)C(=O)N1CCC[C@H]1C(=O)N[C@@H](CO)C(=O)N[C@@H](CO)C(=O)N[C@H](C(=O)N1CCC[C@H]1C(=O)N[C@H](C(=O)NCC(=O)N[C@@H](CO)C(=O)N[C@@H](CC(N)=O)C(=O)N[C@H](C(=O)N[C@@H](Cc1ccc(O)cc1)C(N)=O)[C@@H](C)O)C(C)C)[C@@H](C)O
notes: Analogue of human amylin; disulfide and C-terminal amide as told for h-amylin; also called compound 96
Regarding B1, the “Ratio hCT/hAmylin binding” value in assay [1] is 79.6. Moreover, the IC50 (usually the concentration at which inhibition is half-maximal) was 62.2 nM with rat calcitonin receptor [2] and 0.529 nM in assay [3]. In addition, the “Ratio rCT/rAmylin binding” value with rat calcitonin receptor [4] stood at 118.

B2: N^ε1-[(4S)-4-carboxy-4-(19-carboxynonadecanoylamino)butanoyl]-[Ala14,Arg17,Pro21,Pro27,Pro34]-h-amylin (peptide)
peptide: K([γGlu-C20 diacid])CNTATCATQRLAAFLRHSSPNFGAIPSSTNVGPNTY-NH2
modifications: disulfide 2-7; N-terminus assumed
SMILES: CC[C@H](C)[C@H](NC(=O)[C@H](C)NC(=O)CNC(=O)[C@H](Cc1ccccc1)NC(=O)[C@H](CC(N)=O)NC(=O)[C@@H]1CCCN1C(=O)[C@H](CO)NC(=O)[C@H](CO)NC(=O)[C@H](Cc1c[nH]cn1)NC(=O)[C@H](CCCNC(=N)N)NC(=O)[C@H](CC(C)C)NC(=O)[C@H](Cc1ccccc1)NC(=O)[C@H](C)NC(=O)[C@H](C)NC(=O)[C@H](CC(C)C)NC(=O)[C@H](CCCNC(=N)N)NC(=O)[C@H](CCC(N)=O)NC(=O)[C@@H](NC(=O)[C@H](C)NC(=O)[C@@H]1CSSC[C@H](NC(=O)[C@@H](N)CCCCNC(=O)CC[C@H](NC(=O)CCCCCCCCCCCCCCCCCCC(=O)O)C(=O)O)C(=O)N[C@@H](CC(N)=O)C(=O)N[C@@H]([C@@H](C)O)C(=O)N[C@@H](C)C(=O)N[C@@H]([C@@H](C)O)C(=O)N1)[C@@H](C)O)C(=O)N1CCC[C@H]1C(=O)N[C@@H](CO)C(=O)N[C@@H](CO)C(=O)N[C@H](C(=O)N[C@@H](CC(N)=O)C(=O)N[C@H](C(=O)NCC(=O)N1CCC[C@H]1C(=O)N[C@@H](CC(N)=O)C(=O)N[C@H](C(=O)N[C@@H](Cc1ccc(O)cc1)C(N)=O)[C@@H](C)O)C(C)C)[C@@H](C)O
notes: Analogue of human amylin; disulfide and C-terminal amide as told for h-amylin; also called compound 94
As for B2, in assay [1], the “Ratio hCT/hAmylin binding” value stood at 46.3. Besides, the IC50 in the assay with rat calcitonin receptor [2] was 111 nM; in assay [3] it was 0.397 nM. Moreover, the “Ratio rCT/rAmylin binding” value in the assay with rat calcitonin receptor [4] amounted to 280.

B3: N^ε1-[2-[2-[2-[[2-[2-[2-[[(4S)-4-carboxy-4-(19-carboxynonadecanoylamino)butanoyl]amino]ethoxy]ethoxy]acetyl]amino]ethoxy]ethoxy]acetyl]-[Arg17,Pro21,Pro27,Pro34 … (peptide)
peptide: K([AEEA-AEEA-γGlu-C20 diacid])CNTATCATQRLANFLRHSSPNFGAIPSSTNVGPNTY-NH2
modifications: disulfide 2-7; N-terminus assumed
SMILES: CC[C@H](C)[C@H](NC(=O)[C@H](C)NC(=O)CNC(=O)[C@H](Cc1ccccc1)NC(=O)[C@H](CC(N)=O)NC(=O)[C@@H]1CCCN1C(=O)[C@H](CO)NC(=O)[C@H](CO)NC(=O)[C@H](Cc1c[nH]cn1)NC(=O)[C@H](CCCNC(=N)N)NC(=O)[C@H](CC(C)C)NC(=O)[C@H](Cc1ccccc1)NC(=O)[C@H](CC(N)=O)NC(=O)[C@H](C)NC(=O)[C@H](CC(C)C)NC(=O)[C@H](CCCNC(=N)N)NC(=O)[C@H](CCC(N)=O)NC(=O)[C@@H](NC(=O)[C@H](C)NC(=O)[C@@H]1CSSC[C@H](NC(=O)[C@@H](N)CCCCNC(=O)COCCOCCNC(=O)COCCOCCNC(=O)CC[C@H](NC(=O)CCCCCCCCCCCCCCCCCCC(=O)O)C(=O)O)C(=O)N[C@@H](CC(N)=O)C(=O)N[C@@H]([C@@H](C)O)C(=O)N[C@@H](C)C(=O)N[C@@H]([C@@H](C)O)C(=O)N1)[C@@H](C)O)C(=O)N1CCC[C@H]1C(=O)N[C@@H](CO)C(=O)N[C@@H](CO)C(=O)N[C@H](C(=O)N[C@@H](CC(N)=O)C(=O)N[C@H](C(=O)NCC(=O)N1CCC[C@H]1C(=O)N[C@@H](CC(N)=O)C(=O)N[C@H](C(=O)N[C@@H](Cc1ccc(O)cc1)C(N)=O)[C@@H](C)O)C(C)C)[C@@H](C)O
notes: Analogue of human amylin; disulfide and C-terminal amide as told for h-amylin; also called compound 98
As for B3, in assay [1], the “Ratio hCT/hAmylin binding” value was found to be 74.1. Moreover, the values for the IC50 (in the assay with rat calcitonin receptor [2]; in assay [3]) were 24.1 nM and 0.137 nM, respectively. Moreover, the “Ratio rCT/rAmylin binding” value in the assay with rat calcitonin receptor [4] worked out at 176.

B4: N^ε1N^ε1-[(4S)-4-carboxy-4-(19-carboxynonadecanoylamino)butanoyl]-[His14,Arg17,Pro21,Pro27,Pro34]-h-amylin (peptide)
peptide: K([γGlu-C20 diacid])CNTATCATQRLAHFLRHSSPNFGAIPSSTNVGPNTY-NH2
modifications: disulfide 2-7; N-terminus assumed
SMILES: CC[C@H](C)[C@H](NC(=O)[C@H](C)NC(=O)CNC(=O)[C@H](Cc1ccccc1)NC(=O)[C@H](CC(N)=O)NC(=O)[C@@H]1CCCN1C(=O)[C@H](CO)NC(=O)[C@H](CO)NC(=O)[C@H](Cc1c[nH]cn1)NC(=O)[C@H](CCCNC(=N)N)NC(=O)[C@H](CC(C)C)NC(=O)[C@H](Cc1ccccc1)NC(=O)[C@H](Cc1c[nH]cn1)NC(=O)[C@H](C)NC(=O)[C@H](CC(C)C)NC(=O)[C@H](CCCNC(=N)N)NC(=O)[C@H](CCC(N)=O)NC(=O)[C@@H](NC(=O)[C@H](C)NC(=O)[C@@H]1CSSC[C@H](NC(=O)[C@@H](N)CCCCNC(=O)CC[C@H](NC(=O)CCCCCCCCCCCCCCCCCCC(=O)O)C(=O)O)C(=O)N[C@@H](CC(N)=O)C(=O)N[C@@H]([C@@H](C)O)C(=O)N[C@@H](C)C(=O)N[C@@H]([C@@H](C)O)C(=O)N1)[C@@H](C)O)C(=O)N1CCC[C@H]1C(=O)N[C@@H](CO)C(=O)N[C@@H](CO)C(=O)N[C@H](C(=O)N[C@@H](CC(N)=O)C(=O)N[C@H](C(=O)NCC(=O)N1CCC[C@H]1C(=O)N[C@@H](CC(N)=O)C(=O)N[C@H](C(=O)N[C@@H](Cc1ccc(O)cc1)C(N)=O)[C@@H](C)O)C(C)C)[C@@H](C)O
notes: Analogue of human amylin; disulfide and C-terminal amide as told for h-amylin; also called compound 67
B4: in assay [1], the “Ratio hCT/hAmylin binding” value was 51.6. Moreover, the IC50 in the assay with rat calcitonin receptor [2] was 14.7 nM; in assay [3], 0.172 nM. Besides, the “Ratio rCT/rAmylin binding” value with rat calcitonin receptor [4] stood at 85.4.
